The target in experiment [1] is cmcD (BMC-P shell protein) (Klebsiella pneumoniae). The experiment in a line: cryo-EM structure; small type cmcABC′ + cmcD + CutC_(336–1128) BDPs (gel filtration 90-100 ml), 1 mg/ml in 100 mM NaCl, 20 mM Tris-HCl pH 8.0; pT = 4 icosahedral map at 3.3 Å.
The target in experiment [2] is His6x-CutF, purified (Klebsiella pneumoniae) (UniProt A6T4Z5). The experiment is described as follows: SEC; purified His6x-tagged core enzymes, alone and together, on the Superose 6 column.

Stoichiometry N data for two substances are collected here from paper PMC6971018.

Consider “cmcD (BMC-P shell protein) (natural protein)”, for which the stoichiometry N in experiment [1] was 5. As to “His6x-CutF, purified (from UniProt A6T4Z5 1-239) (enzyme)”, the stoichiometry N in experiment [2] is 4.
